Target: human MIP-1α (human) (UniProt P10147)
Test: 125I-MIP-1α bound to cells with 200X molar excess M-T1, Exp. 1

UniProt P10147, sequence (P10147 24-92 limits assumed): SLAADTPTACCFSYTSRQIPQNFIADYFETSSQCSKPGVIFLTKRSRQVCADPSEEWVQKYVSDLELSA

## myxoma T1 protein (M-T1)
  Surface Bound MIP-1α: 978 cpm

Source: patent publication EP0901379B1
